Earlier results on one substance are cited in paper PMC3995210.

The data set concerns the target dynein intermediate chain (IC) (Drosophila melanogaster) (UniProt Q24246). Put plainly: ITC. Background: In ITC the heat of successive injections is recorded.
Chain of UniProt Q24246 (Q24246 whole entry): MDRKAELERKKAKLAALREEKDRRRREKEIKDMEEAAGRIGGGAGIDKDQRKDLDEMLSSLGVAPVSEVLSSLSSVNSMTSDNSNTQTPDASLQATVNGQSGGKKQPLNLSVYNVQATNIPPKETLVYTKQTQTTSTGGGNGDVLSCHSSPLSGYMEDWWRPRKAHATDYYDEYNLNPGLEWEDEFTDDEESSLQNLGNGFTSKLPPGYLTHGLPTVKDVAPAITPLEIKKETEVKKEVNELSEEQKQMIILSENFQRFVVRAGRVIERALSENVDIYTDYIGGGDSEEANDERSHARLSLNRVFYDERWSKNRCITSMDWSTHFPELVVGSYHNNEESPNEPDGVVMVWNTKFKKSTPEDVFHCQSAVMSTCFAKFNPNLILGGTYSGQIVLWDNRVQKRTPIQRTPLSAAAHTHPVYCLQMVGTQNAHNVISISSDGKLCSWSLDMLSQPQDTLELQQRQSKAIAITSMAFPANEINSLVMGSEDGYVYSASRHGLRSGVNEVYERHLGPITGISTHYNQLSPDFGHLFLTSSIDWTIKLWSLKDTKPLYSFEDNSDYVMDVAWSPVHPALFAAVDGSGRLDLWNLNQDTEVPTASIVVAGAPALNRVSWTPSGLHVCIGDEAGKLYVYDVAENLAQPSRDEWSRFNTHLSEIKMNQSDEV

In general, Kd refers to a measure of binding affinity in units of concentration. For LC8 (from UniProt Q24117), the Kd is 9.8 µM.
